The target in the assay is human HER4 expressed on HEK293 cells (human) (UniProt Q15303). Briefly: flow cytometry, HEK293 HER4 overexpressing cells, PE-A B2-A channel.
human HER4 expressed on HEK293 cells (human), sequence (Q15303 26-1308): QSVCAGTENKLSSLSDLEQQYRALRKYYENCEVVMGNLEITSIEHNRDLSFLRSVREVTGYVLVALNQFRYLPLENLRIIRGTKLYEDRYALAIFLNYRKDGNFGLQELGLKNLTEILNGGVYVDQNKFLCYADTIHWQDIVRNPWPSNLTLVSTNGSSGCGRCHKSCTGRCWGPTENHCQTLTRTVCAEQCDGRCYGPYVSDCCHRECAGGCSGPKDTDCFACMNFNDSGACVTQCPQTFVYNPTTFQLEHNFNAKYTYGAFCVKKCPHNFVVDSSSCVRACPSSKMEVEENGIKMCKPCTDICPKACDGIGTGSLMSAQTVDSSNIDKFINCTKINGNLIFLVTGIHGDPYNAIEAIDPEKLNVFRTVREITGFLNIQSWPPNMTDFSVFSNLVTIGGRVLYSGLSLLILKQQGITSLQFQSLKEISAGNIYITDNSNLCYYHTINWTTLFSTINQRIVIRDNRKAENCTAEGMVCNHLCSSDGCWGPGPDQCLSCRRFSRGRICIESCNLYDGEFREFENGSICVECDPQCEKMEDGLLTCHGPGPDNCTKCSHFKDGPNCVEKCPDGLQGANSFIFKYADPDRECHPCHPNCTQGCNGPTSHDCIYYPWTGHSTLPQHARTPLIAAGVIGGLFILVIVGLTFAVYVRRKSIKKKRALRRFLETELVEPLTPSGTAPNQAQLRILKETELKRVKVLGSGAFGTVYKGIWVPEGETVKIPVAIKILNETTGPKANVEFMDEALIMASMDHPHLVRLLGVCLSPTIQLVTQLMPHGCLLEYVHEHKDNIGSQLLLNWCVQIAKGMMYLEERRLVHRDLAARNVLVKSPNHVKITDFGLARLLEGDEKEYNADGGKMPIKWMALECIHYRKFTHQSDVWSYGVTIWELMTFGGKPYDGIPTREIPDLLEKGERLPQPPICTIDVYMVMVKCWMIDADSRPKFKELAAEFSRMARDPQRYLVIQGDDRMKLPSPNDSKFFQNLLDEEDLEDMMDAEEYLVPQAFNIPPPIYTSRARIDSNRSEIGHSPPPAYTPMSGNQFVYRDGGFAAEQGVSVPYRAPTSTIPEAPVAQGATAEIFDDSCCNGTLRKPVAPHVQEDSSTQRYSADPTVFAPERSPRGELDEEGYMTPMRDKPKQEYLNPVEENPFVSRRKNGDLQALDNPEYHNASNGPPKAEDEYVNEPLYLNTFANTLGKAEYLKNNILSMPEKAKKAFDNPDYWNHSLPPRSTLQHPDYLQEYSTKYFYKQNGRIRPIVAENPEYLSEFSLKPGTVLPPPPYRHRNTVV

B1: MM-121 (antibody, INN chains, looked up, human IgG2, V domains shown)
VH: EVQLLESGGGLVQPGGSLRLSCAASGFTFSHYVMAWVRQAPGKGLEWVSSISSSGGWTLYADSVKGRFTISRDNSKNTLYLQMNSLRAEDTAVYYCTRGLKMATIFDYWGQGTLVTVSS
VL: QSALTQPASVSGSPGQSITISCTGTSSDVGSYNVVSWYQQHPGKAPKLIIYEVSQRPSGVSNRFSGSKSGNTASLTISGLQTEDEADYYCCSYAGSSIFVIFGGGTKVTVL
modifications: IgG2/kappa
The molecule B1 gave a % Positive for HER4 of 8.73%.
